Assay results from the nanobody polyreactivity screen of Harvey et al. (2022).

Assay: yeast display, Sf9 membrane polyspecificity reagent, FACS + sequencing; frameworks hold sequencing errors
In short: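 A synthetic nanobody library was expressed on Saccharomyces cerevisiae BJ5465 by galactose induction for 36–48 hours. The library was stained for 1 hour at 4 °C with 10% biotinylated, detergent-solubilized Sf9 membrane reagent and enriched with streptavidin microbeads before FACS. Low and high (top ~1%) gates were set on anti-HA fluorescence for expression and streptavidin fluorescence for reagent binding, and each polyreactivity label reflects the gate of origin.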

Row | Sequence | polyreactivity (PSR sort gate)
1 | QVQLVESGGGLVQAGGSLRLSCAASGLTFPRYAMGGYRQAPGKERELVAAISYRGGRTYYADSVKGRFTISRDNAKNTVYLQMNSLKPEDTAVYYCNADSIYSARGWLYGYWGQGTQVTVSS | low polyreactivity
2 | QVQLVESGGGLVQAGGSLRLSCAASGSTFAGNGMGWYRQAPGKERELVAGIDVTGGSTYYADSVKGRFTSSRDNAKNTVYLQMNSLKPEDTAVYYCNARYVYHSSFAGFDYWGQGTQVTVSS | low polyreactivity
3 | QVQLVESGGGLVQAGGSLRLSCAASGSIFGGYPMGWYRQAPGKERELVAAITYSAGNTYYADSVKGRFTISRDNAKNTFYVQMNSLKPEDTAVYYCNAVTKHRAITNMDYWGQGTQVTVSS | high polyreactivity
4 | QVQLVESGGGLVQAGGSLRLSCAASGSTFQLYAMGWYRQAPGKERELVAAISGIGDSTYYADSVKGRFTISRDNAKNTVYLQMNSLKPEDTAVYYCAREFSDGLSGKFDYWGQGTQVTVSS | low polyreactivity
5 | QVQLVESGGGLVQAGGSLRLSCAASGFIFYRYAMGWYRQAPGKERELVAAITGGGSTYYADSVKGRFTISRDNAKNTVYLQMNSLKPEDTAVYYCNAVTYGWTAYDKGKRYDYWGQGTQVTVSS | high polyreactivity
6 | QVQLVESGGGLVQAGGSLRLSCAASGSIFYYNAMGWYRQAPGKERELVAAISWGDGITYYADSVKGRFTISRDNAKNTVYLQMNSLKPEDTAVYYCAVDYYYLPYEYWGQGTQVTVSS | high polyreactivity
7 | QVQLVESGGGLVQAGGSLRLSCAASGSTFFANAMGWYRQAPGKERELVAAITSGGSTYYADSVKVRFTISRDNAKNTVYLQMNSLKPEDTAVYYCAAPLCGGARWGRWWLYDSWGQGTQVNVSS | low polyreactivity
8 | QVQLVESGGGLVQAGGSLRLSCAASGNIFVDNAMGWYRQAPGKERELVAAITFSGDDTYYADSVKGRFTISRDNAKNTVYLQMNSLKPEDTAVYYCNAVPTLYWWYDYWGQGTQVTVSS | low polyreactivity
9 | QVQLVESGGGLVHAGGSLRLSCAASGFTFLYNSMGWYRQAPGKERELVASINSGGSTNYADSVKGRFTISRDNAKNTVYLQMNSLKPEDTAVYYCNAKRHVRKGDYWGQGTQVTVSS | low polyreactivity
10 | QVQLGESGGGLVQAGGSLRLSSAASGRTFGSNAMGWYRQAPGKERELVAASSSTVSTNYADSEKGRFTISRDNAKNTVYLQMNSLKPEDTAVYYCNVTRHYSYVSEYDYWGQGTQVTVSS | low polyreactivity
11 | QVHLVESGGGLVQAGGSLRLSCAASGSIYVNTMGWYRQAPGKDRELVAGISRSTGRTYYADSVKGRFTISRDNAKNTVYLQMNSLKPEDTAVYYCNTVPWRRWGYDYWGQGTQVTVSS | high polyreactivity
12 | QVQVVESGGGLVQAGGSLRLSCAASGRIFPYYTMGWYRQAPGKERDLVAAISRRGSSTYYADSVKGRFTISRDNAKNTVYLQMNSLKPEDTAVYYCAADRGGYTRTGEYDYWGQCTQVTVSS | high polyreactivity
13 | QVQLVESGGGLVQAGGSLRLSCAASGRIFGQNAMGWYRQAPGKERELVASITTSGSSTNYADSVKGRFTISRDNAKNTVYLQMNSLKPEDTAVYYCAADYVSPDPDELHDYSGYYYWGQGTQVTVSS | high polyreactivity
14 | QVQLVYSGGGLVQAGGSLRLSCAASGSTFYRYAMGWYRQAPGKERELVATITRSGGSTYYADSVKGRFTISRDNAKNTVYLQMNRLKPEDTAVYYCAVRLWFYYNYWGQGTQVTVSS | low polyreactivity
15 | QVQLVESGGGLVQAGGSLRLSCAASGRTFKYYAMGWYRQAPGKERELVAAISNGGRTNYADSVKGRFTISRDNAKNTVYLQMNSLKPEDTAVYYCAKRSFYFSDYDYWGQGTQVTVSS | high polyreactivity
16 | QVQLVESVGGLVQAGGSLRLSCAASGSTFYRYAMGWYRQAPGKERELVAAISSDGTTYYADSVKGRFTISRDNAKNTVYLQLNSLKPEDTAVYYCAKRGYYRSRRYDYWGQGTLVTVSS | high polyreactivity
17 | QVQLVESGGGLVQAGGSLRLSCAASGSIFIYYAMGWYRQAPGKERELVAAINTGGTTYYADSVKGRFTISRDNAKNTVYLQMNSLKPEDTAVYYCAKYIAYYGYVPSPWDHPGDDYWGQGTQVTVSS | low polyreactivity
18 | QDQLVESGGGLVQAGGSLRLICAASGYTFGHYVMGWYRQAPGKERELVAAITLSGGGTYYADSVKGRFTISRDNAKNTVYLQMNCLKPEDTAVYYCAAVGGEHAKKTYSRYKVDYWGQGTQVTVSS | low polyreactivity
19 | QVQLVESGGGLVQAGGSLRLSCAASGSTFYLNPMGWYRQAPGKERELVAVITSSGGSTNYADSVKGRFTISRDNAKITVYLQMNSLKPEDSAVYYCNRRPYPSYDYWGHGTQVTVSS | low polyreactivity
20 | QVQLVESGGGLVQAGGSLRLSCAASGITFKGNAMGWYRQAPGKERELVAVITWSGGSTYYADSVKGRFTISRDNAKNTVYLQMNSLKPEDTAVYYCAKPWKYGDSQYDYWGQGTQVTVSS | low polyreactivity
21 | QVQLVESGGGLVQAGGSLRLSCAASGRTFERNALGWYRQAPGKEREFVAAITEIGGSTYYADSVKGRFTISRDNAMNTVYLQMNSLKPEDTAVYYCAKDGTYSPYDYWGQGTQVTVSS | low polyreactivity
22 | QVQLVESGGGLVHAGGSLRISCAASGRTFSRNAMGWYRQAPGKERELVATISRRGGSTNYADSVKGRFTISRDYAKNTVYLQMNSLKPDDTAVYYCAAGYRVRDDKVYGIVRPMDYWGQGTQVTVSS | high polyreactivity

Row | Sequence | polyreactivity (PSR sort gate)
23 | QVQLVESGGGLVQAGGSLRLSCAASGGTFHKYDMGWYRQAPGKERELVAYADSVKGRFTISRDNAKNTVYLQMNSLKPEDTAVYYCNADWQSYGYLCHSSLYYYWGQGTQVTVSS | low polyreactivity
24 | QVQLVESGGGLVQAGGSLRLSCAASGRTFNYYAMGWYRQAPGKERELVAAISSGGSTDYADSVKGRFTISRDNAKNTVYLQMNSMKPEDTAVYYCNAESYPGWAYFAYDYQFDYWGQGTQVTVSS | low polyreactivity
25 | QVQLVESGGGLVQAGGSLRLSCAASGFIFQWYAMGWYRPAPGKERELVAGISAGSTNYADSVKGRFTISRDNAKNTVYLQMNSLKPEDTAVYYCAARDYYIPYYSPGYPYDYWGQGTQVTVSS | high polyreactivity
26 | QVQLVESGGGLVQAGGSLRLSCAASGSTFAKYAMGWYRQAPGKESELVASIRLSGGSTYYADSVKGRFTISRDNAKNTVYVQRNSLKPEDTAVYYCNKQFATFYYGFDYSYWGQGTQVTVSS | low polyreactivity
27 | QVQLVESGGGLVQAGGSLRLSCAASGSIFYTNAMGWYRQAPGKERELVAAITGGGRTNYADSLKGRFTISRDNAKNTVYLQMNSLKPEDNAVYYCAARTGYRYYTGDYWGQGTQVTVSS | high polyreactivity
28 | QVQLVESGGGLVQAGGSLRLSCAASGFIFRYYAMGWYRQAPGKERELVAAITRGGSTYYADSVKGRFTISRDNAKNTVYLQMNSLKPEDTAVYDCAARLYTQYYYWGQGTQVTVSS | high polyreactivity
29 | QVQLVESGGGLVQAGGSLRLSCAASGSIFDYYAMGWYRQAPGKERELVATISWIGDRTYYADSVKGRFTISRDNAKNTVYLQMNSLKPEDTAVYYCATDYYEDWRGYVDYWYRPYDYWGHGTQVTVSS | high polyreactivity
30 | QVQLVESGGGLVQAGGSLRISCAASGFIFTRYVMGWYSQAPGKERELVAGISTRGARTYYADSVKGRFTISRDNAKNTVYLQMNSLKPEDTAVYYCAKDYYKHYYWGQGTQVTVSS | high polyreactivity
31 | QVQLVESGGGLVQARGSLRLSCAASGSIFAYNAMGWYRQAPGKERELVARISNRSGRTYYADSVKGRFTISRDNAKNTVYLLMNSLKPEDTAVYYCGVVAGLGTYRRYGYCGQGTQVTVSS | high polyreactivity
32 | QFQLVDSRRGLVQAGGSLRVSCAASGSTFYIYAMGWSRQAPGKERELVARISGSGGSTYYADSVKGRFTISRDNAKNTVYLQMNSLKPEDTAVYYCAADDIYKYYQYYAFPYYRYDDWGQGTQVTVSS | low polyreactivity
33 | QVQLVESGGGLVQAGGSLRLSCAASGFTFGHYAMGWYRQAPGKQRELVAAISYSGVRTYYADSVKGRFTISRDNAKNTVYLQMNSLKPEDTAVYYCNKYPAHYQTRRYDYWGQGTQVTVSS | high polyreactivity
34 | QVQLVESGGGLVQAGGSLTLSCAASGSTFDYNVMGWYRQAPGKERELVAAISNAGTTNYADSVKGRFTISRDNAKNTVYLLMNSLKPEDTAVYYCAADLGYYAAVTKYAEYDYWGQGTQVTVSS | low polyreactivity
35 | QDQLVESGGGLVQAGGSLRLSCAASGFTFRAYTMGWYRQAPGKERELVAAITYSGGRTYYADSVKGRFTISRDNAKKTVNLQMNSLNPEDTAVYYCAKRGWALSEYDYWGQGTQVTVSS | high polyreactivity
36 | QVQLVESGGGLVQAGGSLRLSCAASGGTLRRYAMGWYRQAPGKERELVAGITSGGSTDYADSVKGRFTISRDNAKNTVYLQMNSLKPEDTAVYYCAALVYRPTYGYIFDYWGQGTQVTVSS | high polyreactivity
37 | QVQLVESGGGLVQAGGSLRLSCAACGSIFYYYAMGWYRQAPGKERELVAAITVSGGRTYYADSVKGRFTISRDNAKNSVYLQMNSLKPEDTAVYYCAARRGRYSYYYWGQGTQVTVSS | high polyreactivity
38 | QVLLVESGGGLVQAGGSLRLSCAASGYNFFTKAMGWYRQAQGKERELVAAISKSGGRTYYADSVKGRFTISRDNAKNTVYLQMNSLTPEDTAVYYCAARSETSYYPSRYDYWGQGTQVTVSS | high polyreactivity
39 | HVQLVESGGGLVQAGGSLRLSCAASGRIFPSNTMGWYRQAPGKERELVAAITRGDRTNYADSVKGRFTISRDNAKNTVYLQMNSLKPVDTAVYYCNARWGLPFGSGYYYWGQGTQVTVSS | low polyreactivity
40 | QVHLVESGGGLVQAGGSLRLSCAASGSIFQPYAMGWYRQAPGTERELVAAISSSGGSTTYADSVKGRFTISRDKAKNTVYLQMNSLKPEDTAVYYCAAESADDMGYWGQGTQVTVSS | low polyreactivity
41 | QVHLVESGGGLVQAGGSLRLSCAASGLIFTTNAMGWYRQAPGKERDFVAAISPSGGSTYYADSVKGRFTISRDNSKNTVYLQMNSLKPEDTAVYYCAARYSTVWHKYYYWGQGTQVTVSS | high polyreactivity
42 | QVQLVESVVGLVQSRVRHPLSCSASGIIFAQNAMGWYRQAPGKERELVARITSSGGGTNYADSVKGRFTISRDNAKNTVYLQMNSLKPEDTAVYYCATRWPYRSDWGQGTQVTVSS | high polyreactivity
43 | QVLLVESGGGLVQAGGSLRLSCAAYGRTFYGYAMGWYRQAPGKERELVATISSGDSTNYADSVKGRFTISRDNAKNTVYLQMNSLKPEDTAVYYCAAQGGDGVLALYYYWGQGTQVTVSS | low polyreactivity
